Test results as given in patent US20210063414A1, “METHODS FOR PREVENTING AND/OR TREATING BONE LOSS CONDITIONS BY MODULATING IRISIN” (Dana-Farber Cancer Institute, Inc., priority 2018, published 2021).

Experiments:
Test in all cases: Crosslinking/co-immunoprecipitation/mass spectrometry (TMT quantitative proteomics) to identify irisin receptors
Assay type in all cases: binding
[1] = biological target: T1, MLO-Y4 cell surface proteins (Mus musculus, UniProt P59999); conditions: co-precipitated protein Atpc4 (ARPC4_MOUSE)
T1 construct: endogenous in cells; host or cells: MLO-Y4
Experimental: (§1) MLO-Y4 cells were seeded on 30×150 mm type-I collagen coated dishes as described in cell culture experiment. At 60% cell density, medium was switched to FreeStyle™ 293 Expression medium. After 4 hours incubation, the cells were chilled on ice for 10 minutes, followed by treatment of 10 nM his-tag irisin or his-tag adipsin for 20 minutes. The cells were then incubated with 1.5 mM DTSSP for 30 minutes on ice to do cross-linking, after washing with 15 ml cold PBS twice. The cross-linking was quenched by addition of a final concentration of 20 mM Tris-pH 7.5. The cells were then harvested and homogenized in 1 ml RIPA buffer containing proteaseinhibitor cocktailand phosphatase-inhibitor cocktail. Whole-cell lysates were homogenized by 10 times passages through a 22G needle fitted to a 3 ml syringe. Homogenized samples were rotated gently in cold room for 20 minutes followed by 15,000×g centrifugation for 10 minutes. After addition of a final concentration of 10 mM imidazole, supernatants were incubated with 100 μl Ni-NTA agarose for 1 hour. After centrifugation at 500×g for 1 minute, the supernatants were aspirated and 1 ml cold RIPA buffer containing 10 mM imidazole were added to the agarose. After 10 minutes rotation in cold room, the supernatants were aspirated and 1 ml cold RIPA buffer containing 30 mM imidazole were added to the agarose. After repeating the washing 3 times, 0.8 ml RIPA buffer containing 250 mM imidazole was added and the agarose was gently rotated in a cold room for 20 minutes. After centrifugation at 1000×g for 2 minutes, the supernatants were transferred to 1.5 ml tube and incubated with 100 μl 0.2% sodium deoxycholate and 100 μl 10% trichloroacetic acid in ice for 1 hour. After centrifugation at 12,000×g for 10 minutes at 4° C., the supernatants were removed and 1 ml cold acetone was added to the pellets followed by vortexing for 10 seconds. After one more washing with cold acetone, the pellets were dried at 37° C., and 39 μl PBS and 13 μl 4×NuPAGE LDS were added to the pellets with a final concentration of 5 mM DTT. Solubilized proteins were incubated at 65° C. for 20 minutes followed by incubation with a final concentration of 14 mM iodoacetamide for 45 minutes in the dark. 38 μl samples were loaded to 4-12% gradient SDS-PAGE for separation followed by Coomassie Blue staining. The gels were submitted to quantitative proteomics.
(§2) For in-gel digestions, gels were stained with Coomassie Blue and were excised into 8 equal segments for control and irisin lanes. Gel pieces were destained and dehydrated with 100% acetonitrile, vacuumed dried, and digested in 25 mM HEPES (pH 8.5) with 500 ng sequencing grade trypsin (Promega) and incubated for an overnight at 37° C. (Shevchenko et al. (1996) Anal. Chem. 68:850-858). Digests were treated with 1% formic acid and purified using C18 Stage-Tips as previously described (Rappsilber et al. (2007) Nat. Protoc. 2:1896-1906). Peptides were eluted with 70% acetonitrile and 1% formic acid, then dried using a speedvac. Isobaric labeling of digested peptides was accomplished using 6-plex tandem mass tag (TMT) reagents (Thermo Fisher Scientific, Rockford, Ill.). Reagents, 5.0 mg, were dissolved in 252 μl acetonitrile (ACN) and 5 μl of the solution was added to the digested peptides dissolved in 25 μl of 200 mM HEPES, pH 8.5. After 1 hour at room temperature, the reaction was quenched by adding 1 μl of 5% hydroxylamine. Labeled peptides were combined and acidified prior to C18 Stage-Tips desalting.
(§3) All LC-MS/MS experiments were performed on an Orbitrap Fusion™ Lumos mass spectrometer (Thermo Fisher Scientific, San Jose, Calif., USA) coupled with a Proxeon EASY-nLC™ 1200 LC pump (Thermo Fisher Scientific). Peptides were separated on a 100 μm inner diameter microcapillary column packed with 35 cm of Accucore™ C18 resin (1.8 μm, 100 Å, Thermo Fisher Scientific). […]

[2] = biological target: T2, MLO-Y4 cell surface proteins (Mus musculus, UniProt P62737); conditions: co-precipitated protein Acta2 (ACTA_MOUSE)
T2 construct: endogenous in cells; host or cells: MLO-Y4
Experimental: as §1, §2, §3

[3] = biological target: T3, MLO-Y4 cell surface proteins (Mus musculus, UniProt Q3U1J4); conditions: co-precipitated protein Ddb1 (DDB1_MOUSE)
T3 construct: endogenous in cells; host or cells: MLO-Y4
T3 sequence (Q3U1J4 whole entry): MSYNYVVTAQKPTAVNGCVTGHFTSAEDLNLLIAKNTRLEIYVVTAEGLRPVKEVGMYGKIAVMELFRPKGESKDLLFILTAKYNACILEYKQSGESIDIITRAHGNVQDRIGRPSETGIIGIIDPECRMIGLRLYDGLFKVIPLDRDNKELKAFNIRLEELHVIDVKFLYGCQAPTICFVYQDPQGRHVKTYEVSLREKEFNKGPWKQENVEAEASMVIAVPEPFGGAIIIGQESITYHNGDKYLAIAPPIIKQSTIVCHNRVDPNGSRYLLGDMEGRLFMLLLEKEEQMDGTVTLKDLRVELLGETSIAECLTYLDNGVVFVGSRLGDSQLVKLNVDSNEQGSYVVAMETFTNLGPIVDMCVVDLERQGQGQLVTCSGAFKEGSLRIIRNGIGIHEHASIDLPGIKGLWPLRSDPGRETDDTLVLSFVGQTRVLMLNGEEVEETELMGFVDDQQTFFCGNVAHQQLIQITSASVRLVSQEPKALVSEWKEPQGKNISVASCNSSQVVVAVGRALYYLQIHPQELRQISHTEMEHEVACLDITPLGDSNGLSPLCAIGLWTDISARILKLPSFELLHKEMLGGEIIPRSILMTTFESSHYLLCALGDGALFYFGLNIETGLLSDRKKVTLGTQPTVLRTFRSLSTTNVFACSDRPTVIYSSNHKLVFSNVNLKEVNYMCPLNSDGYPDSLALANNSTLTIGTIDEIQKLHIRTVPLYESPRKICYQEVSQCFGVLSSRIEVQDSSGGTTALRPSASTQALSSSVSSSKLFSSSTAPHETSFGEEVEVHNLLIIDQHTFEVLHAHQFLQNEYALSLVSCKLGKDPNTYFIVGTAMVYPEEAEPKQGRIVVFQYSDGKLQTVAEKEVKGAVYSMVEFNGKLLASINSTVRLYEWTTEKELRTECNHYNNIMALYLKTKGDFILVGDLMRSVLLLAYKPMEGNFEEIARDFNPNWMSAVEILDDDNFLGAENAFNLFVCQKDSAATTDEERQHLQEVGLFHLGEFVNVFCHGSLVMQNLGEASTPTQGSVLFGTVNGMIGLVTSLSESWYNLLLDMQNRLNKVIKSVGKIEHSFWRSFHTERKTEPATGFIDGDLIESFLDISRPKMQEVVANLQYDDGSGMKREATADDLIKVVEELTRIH
Experimental: as §1, §2, §3

[4] = biological target: T4, MLO-Y4 cell surface proteins (Mus musculus, UniProt Q9CXD6); conditions: co-precipitated protein Mcur1 (MCUR1_MOUSE)
T4 construct: endogenous in cells; host or cells: MLO-Y4
T4 sequence (Q9CXD6 1-340): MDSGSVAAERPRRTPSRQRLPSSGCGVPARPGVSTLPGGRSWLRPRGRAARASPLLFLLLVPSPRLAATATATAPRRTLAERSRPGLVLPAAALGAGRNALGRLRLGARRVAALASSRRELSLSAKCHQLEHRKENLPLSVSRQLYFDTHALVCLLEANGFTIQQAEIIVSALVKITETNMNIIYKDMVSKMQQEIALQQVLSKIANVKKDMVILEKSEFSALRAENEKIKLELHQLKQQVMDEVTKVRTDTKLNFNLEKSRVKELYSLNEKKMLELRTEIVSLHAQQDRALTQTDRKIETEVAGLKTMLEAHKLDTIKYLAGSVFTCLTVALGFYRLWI
Experimental: as §1, §2, §3

[5] = biological target: T5, MLO-Y4 cell surface proteins (Mus musculus, UniProt Q9D3P1); conditions: co-precipitated protein Tchhl1 (TCHL1_MOUSE)
T5 construct: endogenous in cells; host or cells: MLO-Y4
T5 sequence (Q9D3P1 1-638): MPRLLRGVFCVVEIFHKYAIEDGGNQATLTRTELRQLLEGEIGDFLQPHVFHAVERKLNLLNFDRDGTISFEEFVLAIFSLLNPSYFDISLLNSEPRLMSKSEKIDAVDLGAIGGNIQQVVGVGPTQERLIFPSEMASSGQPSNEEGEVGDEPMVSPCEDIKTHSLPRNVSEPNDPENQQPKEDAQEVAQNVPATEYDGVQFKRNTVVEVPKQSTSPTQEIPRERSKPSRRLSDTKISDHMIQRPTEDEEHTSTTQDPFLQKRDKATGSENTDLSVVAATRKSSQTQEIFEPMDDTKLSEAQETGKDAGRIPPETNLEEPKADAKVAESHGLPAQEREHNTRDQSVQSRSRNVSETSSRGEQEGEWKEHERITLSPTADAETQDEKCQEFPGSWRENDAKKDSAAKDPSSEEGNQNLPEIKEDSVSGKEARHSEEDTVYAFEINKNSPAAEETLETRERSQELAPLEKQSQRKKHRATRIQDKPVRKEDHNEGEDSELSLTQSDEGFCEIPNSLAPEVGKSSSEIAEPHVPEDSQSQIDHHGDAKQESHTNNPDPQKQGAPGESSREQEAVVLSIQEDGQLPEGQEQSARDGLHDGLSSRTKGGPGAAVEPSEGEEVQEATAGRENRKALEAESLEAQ
Experimental: as §1, §2, §3

B1: irisin: secreted cleaved form of FNDC5; recombinant human/mouse irisin with C-terminal his tag produced in HEK293 cells (protein)
chain: DSPSAPVNVTVRHLKANSAVVSWDVLEDEVVIGFAISQQKKDVRMLRFIQEVNTTTRSCALWDLEEDTEYIVHVQAISIQGQSPASEPVLFKTPREAEKMASKNKDEVTMKE
modifications: left off: small tags and cut ends
notes: secreted cleaved form of FNDC5; recombinant human/mouse irisin with C-terminal his tag produced in HEK293 cells
[1]
  TMT signal-to-noise ratio: 74.075
  irisin/adipsin TMT signal-to-noise ratio: 0.536
[2]
  TMT signal-to-noise ratio: 107.601
  irisin/adipsin TMT signal-to-noise ratio: 0.298
[3]
  TMT signal-to-noise ratio: 149.943
  irisin/adipsin TMT signal-to-noise ratio: 0.352
[4]
  TMT signal-to-noise ratio: 951.207
  irisin/adipsin TMT signal-to-noise ratio: 0.583
[5]
  TMT signal-to-noise ratio: 23.5307
  irisin/adipsin TMT signal-to-noise ratio: 0.013
